Experimental data reported in US20090123474A1, “COMBINATION OF ANGIOPOIETIN-2 ANTAGONIST AND OF VEGF-A, KDR AND/OR FLTL ANTAGONIST FOR TREATING CANCER” (ASTRAZENECA AB, priority 2005, published 2009).

Key:
[1] = test system: human SW620 colon tumour xenografts; test: SW620 xenograft efficacy study; type: in vivo; details: 3.19.3 10 mg/kg 2×wk i.p., DC101 15 mg/kg 2×wk i.p., 3 weeks
Method: The anti-tumor activity of mAb 3.19.3 was evaluated in combination with monoclonal antibody DC101 which is directed against VEGFR-2/KDR, in the SW620 colorectal cancer xenograft model. Briefly, SW620 cells were cultured under routine tissue culture conditions in flasks until the cells reached sub-confluence. Immunodeficient 8-10 week old NCr nude mice were used, and cell suspensions containing approximately 1×10^6 cells were injected subcutaneously into the right flank of the mice. After the tumour volumes reached 100 mm^3, the mice were randomized in groups and the treatments were initiated. The mAb 3.19.3 10 mg/kg in saline was injected intraperitoneally, twice per week for 3 weeks. The mAb DC101 15 mg/kg in saline was also injected intraperitoneally, following the same schedule of twice per week for 3 weeks. The dimensions of each tumor were measured twice per week. The volume of the tumor was calculated as: Volume=Length×(Width)^2×0.5 (cm^3).

[2] = molecular target: T1, Angiopoietin-2 binding to Tie-2 (Homo sapiens, UniProt O15123); test: Competitive binding assay (modified ELISA): inhibition of Angiopoietin-2 binding to Tie-2
T1 construct: purchased R&D Systems, Inc. BT623 (Angiopoietin-2, biotinylated); 313-TI-100 (Tie-2/Fc)
T1 sequence (O15123 19-496): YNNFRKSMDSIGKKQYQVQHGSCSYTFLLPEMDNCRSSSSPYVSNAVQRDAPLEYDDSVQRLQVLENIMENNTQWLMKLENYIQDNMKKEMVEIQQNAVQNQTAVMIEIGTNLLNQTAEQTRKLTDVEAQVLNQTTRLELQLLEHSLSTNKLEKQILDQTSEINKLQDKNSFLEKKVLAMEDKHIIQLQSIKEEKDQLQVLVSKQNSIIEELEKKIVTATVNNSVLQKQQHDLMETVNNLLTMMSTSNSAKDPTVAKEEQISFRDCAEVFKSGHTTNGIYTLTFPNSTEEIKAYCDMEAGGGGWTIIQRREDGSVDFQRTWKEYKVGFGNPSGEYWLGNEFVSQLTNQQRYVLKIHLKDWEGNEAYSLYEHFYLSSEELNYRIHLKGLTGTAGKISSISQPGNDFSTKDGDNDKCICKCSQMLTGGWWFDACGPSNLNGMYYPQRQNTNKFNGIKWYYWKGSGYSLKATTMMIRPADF
Method: As discussed above, Angiopoietin-2 exerts its biological effect by binding to the Tie-2 receptor. Monoclonal antibodies that inhibited Angiopoietin-2/Tie-2 binding were identified by a competitive binding assay using a modified ELISA. The mAb used were products of micro-purification from 50 ml of exhaustive supernatants of the hybridoma pools that were specific for Angiopoietin-2 (see above). 96-well Nunc Immplates™ were coated with 100 μl of recombinant human Tie-2/Fc fusion protein (R&D Systems, Inc., Cat. No. 313-TI-100) at 4 μg/ml by incubating overnight at 4° C. The plates were washed four times using Phosphate Buffer Saline (PBS) with a Skan™ Washer 300 station (SKATRON). The wells were blocked by 100 μl of ABX-blocking buffer (0.5% BSA, 0.1% Tween, 0.01% Thimerosal in PBS) for 1 hour.
Biotinylated recombinant human Angiopoietin-2 (R&D Systems, Inc. Cat. No. […] The plates were incubated at room temperature for two hours before the unbound molecules were washed off. Bound biotinylated Angiopoietin-2 was then detected using 100 μl/well of Streptavidin-HRP conjugate at 1:200 by incubating at room temperature for half an hour. After washing twice, the bound Streptavidin was detected by HRP substrate (R&D Systems, Cat. No. DY998). The plates were incubated for 30 minutes before 450 stop solution (100 μl/well, BioFX, Cat# BSTP-0100-01) was added to terminate the reaction. The light absorbance at 450 nm was determined by a Spectramax Plus reader.
Soluble recombinant Tie-2/Fc fusion protein at 10-fold molar excess to Angiopoietin-2 was used as a positive control. At this concentration, Tie-2/Fc inhibited binding of Angiopoietin-2 to immobilized Tie-2 by 80%.
To quantitate the inhibitory activities of the mAb on Angiopoietin-2 binding to Tie-2, the titer was determined for purified mAbs from the top candidates using a competitive binding assay. Each concentration of the mAb was tested in duplicate. The concentration-response relationship was found by curve fitting using Graphpad Prism™ graphic software (non-linear, Sigmoid curve). The maximal inhibition (efficacy) and IC50 (potency) were calculated by the software.

[3] = test system: human Colo205 colon tumour xenografts; test: Colo205 xenograft efficacy study (Study B); type: in vivo; details: 3.19.3 10 mg/kg 2×wk i.p., VTKI 6 mg/kg/day p.o.
Method: (§1) The anti-tumor activity of monoclonal antibody 3.19.3 in combination with the VTKI 4-(4-fluoro-2-methylindol-5-yloxy)-6-methoxy-7-(3-piperidinopropoxy)quinazoline was evaluated in a xenograft model of human skin epidermoid carcinoma (Study A) and in a model of colorectal cancer (Study B) by using the A431 and Colo205 cell lines respectively.
(§2) A431 and Colo205 cells were cultured in flasks as routine until the cells reached sub-confluence. Immunodeficient 6-8 week old female mice (Ncr/nu/nu) were used. The cells were harvested and suspended in Matrigel. A cell suspension containing 1 to 5×10^6 cells was injected subcutaneously into the flank of the mice. The mice were randomized into different groups, each containing 10-15 mice. When the tumour volume reached 200 mm^3, the mice were randomized in each groups and the treatments were initiated. mAb 3.19.3 10 mg/kg in saline was injected intraperitoneally, twice per week for 2 weeks. 4-(4-fluoro-2-methylindol-5-yloxy)-6-methoxy-7-(3-piperidinopropoxy)quinazoline was treated peroral daily at doses ranging from 1.5 to 6 mg/kg in water containing 1% Tween80. The dimensions of each tumor were measured twice per week. The volume of the tumor was calculated as: Volume=Length×(Width)^2×0.5 (cm^3).

[4] = test system: A431 human tumour xenografts; test: A431 xenograft efficacy study (Study A); type: in vivo; details: 3.19.3 10 mg/kg 2×wk i.p., VTKI 3 mg/kg/day p.o.
Method: as §1, §2

B1: mAb 3.19.3: fully human anti-Angiopoietin-2 monoclonal antibody, variable regions SEQ ID NO: 5-8; also binds Angiopoietin-1 (antibody, V domains shown)
VH: QVQLVESGGGVVQPGRSLRLSCAASGFTFTNYGMHWGRQAPGKGLEWVAVISHDGNNKYYVDSVKGRFTISRDNSKNTLYLQMNSLRAEDTAVYYCAREGIDFWSGLNWFDPWGQGTLVTVSSA
VL: EIVLTQSPGTLSLSPGERATLSCRASQSITGSYLAWYQQKPGQAPRLLICGASSWATGIPDRFSGSGSGTDFTLTISRLEPEDFAVYYCQQYSSSPITFGQGTRLEIKR
In the case of B1, the tumour inhibition [1] is reported as 48%, the “EC50” value ([2]; potency, competitive binding of Angiopoietin-2 to Tie-2, purified mAb) is reported as 0.7976 µg/mL and the “Efficacy*” value ([2]; ratio of bound Angiopoietin-2 with mAb (30 μg/ml) versus without mAb) is reported as 0.3945. The “% inhibition” value [3] was 35% and the “% tumor growth inhibition” value [4] was 46%.
